Consider 140 substances from the supplement of paper PMC12042874.

This data set can be described thus: amyloid nucleation score (Sup35N fusion, yeast selection) (log enrichment); library NNK2; higher = more nucleation; inactive = no reads after selection. The essentials: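 Three technical output replicates were used for random libraries. Psi-negative yeast expressing peptides of 20 random codons fused to Sup35N were induced with 100 μM copper sulfate for 24 hours and grown 7 days at 30°C on medium lacking adenine and uracil, and input and output plasmid inserts were Illumina-sequenced, excluding sequences with under 100 input reads. The nucleation score is the DiMSum log enrichment of output over input reads, centred on the mode score of non-aggregating sequences.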

± gives the uncertainty stated by the source.

Regarding FMNLTLGIYKDFITFMMYVS, the amyloid nucleation score was 1.83 ± 0.12.
In the case of RRPCLS it was -1.09 ± 0.63; in that of PFGMCSFTVVIYYGCFEDAH, 0.519 ± 0.3; in that of ILLNEVFDRTWSELPGCNCT, 0.043 ± 0.21.
Next, VFSNDASDNTRGRWLGYGFF: “inactive”.
Next, VLKKA: 0.185 ± 0.8; GLMAWR: 0.154 ± 0.37.
EVEIEE came in with an amyloid nucleation score of -0.576 ± 0.76.
For the substance NDVGSLWVIADVGIFYVQDK, the amyloid nucleation score was -0.662 ± 0.61.
Next, RCSVVNWDNHVMLALDRVGY: “inactive”; RCNWTSNFFQYMYKNRPNNG: “inactive”.
In the case of MCVGNYVLRFLALPPSGCNM it was -0.806 ± 0.36; in that of INGPCVYFNFL, 6.425 ± 0.057.
As for DVETL, the amyloid nucleation score is -1.24 ± 0.41.
In the case of GVKRYDVHM it was -0.244 ± 0.48; in that of FRLTIDNFDVNGLLSEMAYG, -0.293 ± 0.38.
Next, MSPYL: 0.479 ± 0.8; FVWSKSR: 2.88 ± 0.13; VERIKLFASAHYS: -0.203 ± 0.35.
Next, VTIIVLPANVMLMWVFCYMY: -0.93 ± 0.78; HRDHGTISLHRKCSYVALAS: 1.14 ± 0.29; SMGINSGGRWRADSVSVGLR: 0.786 ± 0.23.
NIRKMSGFVNSYTAYSQGEL: the amyloid nucleation score result is “inactive”.
In the case of SGCFVWPELVGESSIIMCPS it was “inactive”; in that of CVMALVYACRAAHTRPMAYS, “inactive”.
In the case of GWESGALWVANFLSVRQA it was 0.19 ± 0.56.
In turn, LLIINIEMYRCNRLLYIDNN gave an amyloid nucleation score of 3.15 ± 0.097.
Next, GTMLMGVE: 0.449 ± 0.8; YYLSFCVSNAGAPGMDLMGQ: 0.328 ± 0.65; FYYLWWDSFRIVISMR: -1.86 ± 0.62.
Substance SKGRHVMGLGCEGNIWLKEL had an amyloid nucleation score of -0.377 ± 0.34.
In the case of FPQFNRIWSSNFFAHIEGLN it was -1.85 ± 0.44.
In the case of RIQWKDGYHVARRVFIGNTG it was -0.449 ± 0.63.
In the case of NTEKSIVVRDMIKDSYPFSV it was “inactive”; in that of IFPGILH, -1.83 ± 0.63.
As for GVASMSRRARSHKMGGWMGR, the amyloid nucleation score came to 1.05 ± 0.41.
In the case of PWSSHCSCVFNNKDLILGNT it was -0.21 ± 0.79.
In the case of ENCFVSICVGSATLGMCSSG it was 8.02 ± 0.034; in that of VNWRLKHWLGEDDPLPVTSF, -0.267 ± 0.63.
RYALNYTIPEPYWT gave an amyloid nucleation score of -0.576 ± 0.55.
In the case of CGATQHSGTQVDLKLGFI it was -0.321 ± 1.1; in that of WSMKGFYL, “inactive”; in that of IESSGWAGRGTYSTYLASNV, 1.2 ± 0.66.
In the case of CSCFWCRRRKNYKFLGGCGS it was -1.25 ± 1.1; in that of VLWVS, “inactive”; in that of DAWKLNTDIYSANRYFIDLV, -0.651 ± 0.27.
Next, RWTKGCDSNCIWF: -0.502 ± 0.25.
Regarding LVHYFICHVPFLIFRYDKVT, the amyloid nucleation score result was “inactive”.
DMMRFYGAPDGQGNTHQNRT: the amyloid nucleation score was determined as 1.63 ± 0.12.
Next, YSKDSMDSYMMIMFGSVACH: 0.681 ± 0.6; PEMLHTVILGISSNHYERGL: -1.12 ± 0.74.
On to DDNVLYCYSYVVHESLSAAQ, for which the amyloid nucleation score amounted to 0.354 ± 0.3.
In the case of ETLAVLRIPCSRLYDHIYNF it was -0.791 ± 0.78; in that of CGNSHMYMNAGDFT, -0.293 ± 0.79.
Next, HKWCKYNDLFVIHMSGFGRG: 5.44 ± 0.087; YNSPSDWDTIISSIILF: -1.21 ± 1.1.
In the case of MCRYCLVWYGFLNYSTLTRG it was -1.37 ± 0.62; in that of GAGWFNDFVHLPWHLEVSNY, -1.17 ± 1.1; in that of LYLTRMFTTNAL, 0.806 ± 0.58.
GLSLLRGTNSGSAARLGANG displayed an amyloid nucleation score of 0.452 ± 0.32.
Next, LFCTRMEVSLLGFWNSYAEL: -0.01 ± 0.45; LATTVYFGAMGHVS: -1.38 ± 1; VTPDLDCLRDNDMVCGGPDQ: 0.171 ± 0.23.
Next, NKYYLSNLMTCLAQKLSSSG: 0.053 ± 1.1.
MWVPFASWLCK displayed an amyloid nucleation score of -0.08 ± 0.5.
Next, TFNRFFRCSVFAFRA: 4.53 ± 0.062; GFGCPA: -0.165 ± 1.
In the case of LVQMISKILYNEE it was “inactive”; in that of VAFIFRSSWKSIPKTPKMYS, “inactive”; in that of RLNRSMSSHHDRRHLEWSLS, 0.235 ± 0.19.
Next, TTDSGAVYSGLPE: 0.542 ± 0.19; DRLLRSRLGIRSNRIVCW: -0.539 ± 0.36.
As for VRQYPSTVPSLWLYVGSRH, the amyloid nucleation score came out at 4.19 ± 0.069.
Next, DIRMLERTNLIPYNKQVMGM: 0.163 ± 0.29; YSWSRVKFNSL: 2.53 ± 0.076; VQLGVHV: 0.14 ± 0.4.
The substance WFYNVATYTHVAANTRVMKC yielded an amyloid nucleation score of 0.231 ± 0.44.
In the case of FWLNMYSVETVYGVVFAWEK it was -0.694 ± 0.31; in that of NLLTPFRLRPKTHLDLYRSC, -0.196 ± 1.1.
In the case of PSLRV it was 1.08 ± 0.42; in that of SVLSLTKMFGFVADGSRIIK, -0.574 ± 0.5.
IFNRSASYLAFFHKG displayed an amyloid nucleation score of 4.3 ± 0.079.
Next, GPIWCRS: -0.467 ± 0.74; SFTYASSV: -1.1 ± 0.28; FRFWLIDAHLLWDFSYLDTR: 3.28 ± 0.13.
In the case of QFASISICYKSSIPNDCNDV it was 1.12 ± 0.2.
Next, SLLMNMS: 0.269 ± 0.37; VNNATKIGWSSMAIRDNKTI: -0.142 ± 0.49.
MLWQFKWESGYVTLRARPN: the amyloid nucleation score result is “inactive”.
Next, MTCSSHCGMCIPSIPQVFGA: 1.02 ± 0.4.
Next, SIDYD: -0.627 ± 0.76; RTVLGGWMANWASHNILVQC: 0.316 ± 0.39.
Next, RTGLTRYLLYFPV: 0.326 ± 0.22; YNMMSKFNIFGYYACKSSWK: 1.27 ± 0.14; THKNLEC: 0.681 ± 0.17.
SVFYVSKSSLTPDLDSVFLS: the amyloid nucleation score was -0.376 ± 0.48.
In the case of FFNLNYMGFHSDIGSLIYPC it was “inactive”; in that of KIFSSF, -1.01 ± 1.1.
In the case of RVWDNSVLGWQQGFSTVERV it was 0.766 ± 0.3; in that of HKGWIKLLLPAHQLITLPPN, 0.174 ± 1.
In the case of SPFIRHLNGSICRDNYFYVG it was 3.03 ± 0.063; in that of LTPNCGKVGGRMRGRILSGV, 0.787 ± 0.3; in that of LVRVGDFG, -0.267 ± 0.54.
In turn, RVFMEH showed an amyloid nucleation score of -0.047 ± 1.1.
On to EYNDRCV, for which the amyloid nucleation score came to 0.974 ± 0.28.
In the case of WQSSSILIASSCVRSPGLPV it was 0.27 ± 0.46; in that of WILVGFIIGTKWVSRPTTDC, 3.61 ± 0.056; in that of YLDAHILHE, 4.54 ± 0.087.
Next, LVSFGPLMDQGSCIALHSRR: 0.162 ± 0.31; LKYDSKPSRVWMEICLYDAR: 7.192 ± 0.054; IMMWFYPARTRQELASYEDQ: 2.12 ± 0.089.
Next, TLMQSYVQFWYTLYSHNNWL: -0.698 ± 0.24.
For the substance CFDCNIRGSVWKVYISLIVG, the amyloid nucleation score result is “inactive”.
Take LIIVMTLPYFGTSAM: the amyloid nucleation score came to 0.362 ± 0.3.
Next, TRSHLFGYSVMGSSLIDSLY: -1.24 ± 0.79.
Next, ILSHTGRVYKLRLYVIQIVR: -0.434 ± 0.61; WCLMVGFMFMCRYDGNQSDG: 2.98 ± 0.051; RGVLYAKVL: 0.808 ± 0.33.
In the case of FLMANSFFCNCFYTVYFTHC it was 4.52 ± 0.047; in that of DQFWSENRIDYDNLAIRLQL, -1.1 ± 0.76.
In turn, NIVVVYIEFSGVHPTLVLLW yielded an amyloid nucleation score of -0.42 ± 0.3.
Substance WVACWTSLLYQVIVIIRGLN yielded an amyloid nucleation score of 0.975 ± 0.38.
In the case of AAMPLPF it was “inactive”.
In the case of YCRHIAVECSVGLHWHGGTV it was 3.26 ± 0.15.
In the case of MSLLV it was 5.695 ± 0.029; in that of AVAVACLDH, 0.713 ± 0.58; in that of MTGNVYKMIILIYNFFRRS, 2.7 ± 0.069.
Substance GYAADLWWVLLFYERLVSGD had an amyloid nucleation score of 0.026 ± 0.49.
CAIAWRMPLDRPPLKE yielded an amyloid nucleation score of -0.627 ± 0.76.
Next, FRYIKPTCSFICLVRFVGDF: -0.833 ± 1; LNHKDICFARNLVRVREGHN: 0.809 ± 0.38.
Next, RDIFILYD: “inactive”.
Next, LYDFCVSYVSQNGLRLFVRT: -0.727 ± 0.45.
DVLGLSGACFGITERVDRLA registered an amyloid nucleation score of 2.32 ± 0.1.
Next, CSLPCVTNWCRRRNMVSQPV: -1.11 ± 1.1; SHWLHGFSH: “inactive”; AKYRLVVLSEFYSLTPRVLD: -0.107 ± 1.
Next, VFQSDECVFLCSN: -0.561 ± 0.55.
The substance RVKEMWGVYVGQHGYTANAL showed an amyloid nucleation score of 0.842 ± 0.47.
With ISGTHLCSRFYIRYALCGLK, the amyloid nucleation score came to 4.66 ± 0.079.
